# In publication PMC10115415, “RNA binding induces an allosteric switch in Cyp33 to repress MLL1-mediated transcription” (Science Advances, 2023):
# B1: Histone H3 lysine N6-trimethylated peptide (H3K4me3) (peptide, UniProt P68431 2-14, looked up)
# peptide: ARTKQTARKSTGG
# modifications: N6-trimethyl-lysine at 4
# notes: histone H3 N-terminal tail, residues 1–13 (chain C of the ternary complex), Lys4 trimethylated; The text says that it has four positively charged residues and no negatively charged one; The limits 1–13 are those of chain C of the structure; also called H3K4me3 peptide; histone H3 tail
# B2: MLL1 third plant homeodomain (PHD3) (domain or fragment, UniProt Q03164 1564-1627, looked up)
# chain: AKGNFCPLCDKCYDDDDYESKMMQCGKCDRWVHSKCENLSDEMYEILSNLPESVAYTCVNCTER
# notes: mixed-lineage leukemia 1 (MLL1), PHD3 domain, residues 1564 to 1627 (chain B 1564–1627); coordinates two zinc ions; The tag was removed with TEV protease on the chitin column; also called MLL1 PHD3; MLL1-PHD3; source: E. coli BL21-(DE3), codon-optimized construct, IMPACT system, purified (chitin beads, TEV cleavage, Superdex 75)
# What was measured:
# Conditions in all cases: both partners purified
# [1] = target: B2; experiment: ITC; conditions not given (table S1, fig. S2)
# [2] = target: Cyp33 RRM/MLL1 PHD3 complex (human | , UniProt Q9UNP9 1-114; Q03164 1564-1627); experiment: ITC; conditions not given (table S1, fig. S2)
# Sequence of Cyp33 RRM/MLL1 PHD3 complex (Q9UNP9 other isoform, or with tags, fused parts or gaps): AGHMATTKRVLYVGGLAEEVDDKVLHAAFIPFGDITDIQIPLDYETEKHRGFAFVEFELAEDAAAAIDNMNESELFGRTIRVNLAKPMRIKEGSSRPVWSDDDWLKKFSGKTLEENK
# Cyp33 full-length (FL) = target: T1, Cyp33 full-length (FL) (human, UniProt Q9UNP9 1-301); experiment: NMR titration; Cyp33 FL:UAAUGU RNA complex mixed with MLL1 PHD3:H3K4me3 complex at 1:1:1:1 stoichiometry (or in large excess of Cyp33:RNA); signals of RNA, of the K4me3 methyl groups and of PHD3 residues followed
# T1 construct: cyclophilin 33 (Cyp33), 33 kDa, N-terminal RRM and C-terminal cyclophilin domain; details may stand in the Supplementary Materials and Methods; also called Cyp33 FL; cyclophilin 33
# T1 sequence (Q9UNP9 whole entry, the tested form may be a part): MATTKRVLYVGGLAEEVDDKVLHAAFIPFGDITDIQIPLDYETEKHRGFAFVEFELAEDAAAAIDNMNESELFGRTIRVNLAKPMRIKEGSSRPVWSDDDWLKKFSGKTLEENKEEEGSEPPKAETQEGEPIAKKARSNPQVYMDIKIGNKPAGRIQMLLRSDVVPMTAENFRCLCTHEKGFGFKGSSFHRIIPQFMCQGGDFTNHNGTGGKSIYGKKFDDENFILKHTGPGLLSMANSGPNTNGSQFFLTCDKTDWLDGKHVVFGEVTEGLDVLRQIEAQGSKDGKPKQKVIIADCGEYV
Kd [1] [µM],Kd [2] [µM],binding result (Cyp33 full-length (FL)),Binder
51,70,–,B1
–,–,binds,B2
